Each block holds one binder with its values, some of them ahead of it.
Legend:
NIK-T7 = target: T1, NIK-T7 (Homo sapiens (Human), UniProt Q99558 1-947); test: co-immunoprecipitation from 293 lysates, anti-T7 IP, anti-Myc blot
T1 construct: Full-length NIK in pEV3S with C-terminal T7 tag; also called pEV-NIK-T7

IKKα-T7 = target: T2, IKKα-T7 (murine, UniProt Q60680 1-745); test: as above
T2 construct: also called T7-IKKα; murine IKKα/CHUK
T2 sequence (looked up): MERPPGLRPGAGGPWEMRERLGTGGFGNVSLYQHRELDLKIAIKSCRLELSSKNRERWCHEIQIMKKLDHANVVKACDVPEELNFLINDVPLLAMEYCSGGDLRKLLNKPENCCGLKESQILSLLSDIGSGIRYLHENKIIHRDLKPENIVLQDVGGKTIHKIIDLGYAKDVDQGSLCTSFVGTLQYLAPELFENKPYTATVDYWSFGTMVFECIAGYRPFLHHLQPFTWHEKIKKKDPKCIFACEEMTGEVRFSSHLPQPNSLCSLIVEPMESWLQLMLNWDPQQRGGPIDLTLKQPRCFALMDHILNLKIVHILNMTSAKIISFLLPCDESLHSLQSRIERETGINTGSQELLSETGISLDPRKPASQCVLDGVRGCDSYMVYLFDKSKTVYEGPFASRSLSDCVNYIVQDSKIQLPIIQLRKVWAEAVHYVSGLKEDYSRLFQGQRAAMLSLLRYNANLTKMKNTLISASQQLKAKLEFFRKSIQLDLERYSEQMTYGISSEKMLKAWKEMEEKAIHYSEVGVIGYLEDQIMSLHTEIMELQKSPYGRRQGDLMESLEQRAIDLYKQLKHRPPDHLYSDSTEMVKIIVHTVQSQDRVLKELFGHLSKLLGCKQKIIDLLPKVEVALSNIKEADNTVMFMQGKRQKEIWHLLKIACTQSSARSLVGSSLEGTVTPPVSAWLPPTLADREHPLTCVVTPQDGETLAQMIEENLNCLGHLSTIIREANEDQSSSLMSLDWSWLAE

B1: Myc-N570-947 (other, not shown: small tags and cut ends)
chain: GRSCDAKVDVWSSCCMMLHMLNGCHPWTQFFRGPLCLKIASEPPPVREIPPSCAPLTAQAIQEGLRKEPIHRVSAAELGGKVNRALQQVGGLKSPWRGEYKEPRHPPPNQANYHQTLHAQPRELSPRAPGPRPAEETTGRAPKLQPPLPPEPPEPNKSPPLTLSKEESGMWEPLPLSSLEPAPARNPSSPERKATVPEQELQQLEIELFLNSLSQPFSLEEQEQILSCLSIDSLSLSDDSEKNPSKASQSSRDTLSSGVHSWSSQAEARSSSWNMVLARGRPTDTPSYFNGVKVQIQSLNGEHLHIREFHRVKVGDIATGISSQIPAAAFSLVTKDGQPVRYDMEVPDSGIDLQCTLAPDGSFAWSWRVKHGQLENRP
binding result (NIK-T7): no binding

B2: Myc-N1-220 (other, not shown: small tags and cut ends)
chain: MAVMEMACPGAPGSAVGQQKELPKPKEKTPPLGKKQSSVYKLEAVEKSPVFCGKWEILNDVITKGTAKEGSEAGPAAISIIAQAECENSQEFSPTFSERIFIAGSKQYSQSESLDQIPNNVAHATEGKMARVCWKGKRRSKARKKRKKKSSKSLAHAGVALAKPLPRTPEQESCTIPVQEDESPLGAPYVRNTPQFTKPLKEPGLGQLCFKQLGEGLRPA
notes: Treated as one construct; also called Myc-N1-200; N1-200
binding result (IKKα-T7): no binding
binding result (NIK-T7): no binding

The remaining lines, values ahead:

binding result (IKKα-T7): no binding
B3: Myc-N1-366 (other, not shown: small tags and cut ends)
chain: MAVMEMACPGAPGSAVGQQKELPKPKEKTPPLGKKQSSVYKLEAVEKSPVFCGKWEILNDVITKGTAKEGSEAGPAAISIIAQAECENSQEFSPTFSERIFIAGSKQYSQSESLDQIPNNVAHATEGKMARVCWKGKRRSKARKKRKKKSSKSLAHAGVALAKPLPRTPEQESCTIPVQEDESPLGAPYVRNTPQFTKPLKEPGLGQLCFKQLGEGLRPALPRSELHKLISPLQCLNHVWKLHHPQDGGPLPLPTHPFPYSRLPHPFPFHPLQPWKPHPLESFLGKLACVDSQKPLPDPHLSKLACVDSPKPLPGPHLEPSCLSRGAHEKFSVEEYLVHALQGSVSSSQAHSLTSLAKTWAARGSR
notes: C-terminal deletion mutant of NIK

binding result (IKKα-T7): no binding
B4: Myc-N1-624 (other, not shown: small tags and cut ends)
chain: MAVMEMACPGAPGSAVGQQKELPKPKEKTPPLGKKQSSVYKLEAVEKSPVFCGKWEILNDVITKGTAKEGSEAGPAAISIIAQAECENSQEFSPTFSERIFIAGSKQYSQSESLDQIPNNVAHATEGKMARVCWKGKRRSKARKKRKKKSSKSLAHAGVALAKPLPRTPEQESCTIPVQEDESPLGAPYVRNTPQFTKPLKEPGLGQLCFKQLGEGLRPALPRSELHKLISPLQCLNHVWKLHHPQDGGPLPLPTHPFPYSRLPHPFPFHPLQPWKPHPLESFLGKLACVDSQKPLPDPHLSKLACVDSPKPLPGPHLEPSCLSRGAHEKFSVEEYLVHALQGSVSSSQAHSLTSLAKTWAARGSRSREPSPKTEDNEGVLLTEKLKPVDYEYREEVHWATHQLRLGRGSFGEVHRMEDKQTGFQCAVKKVRLEVFRAEELMACAGLTSPRIVPLYGAVREGPWVNIFMELLEGGSLGQLVKEQGCLPEDRALYYLGQALEGLEYLHSRRILHGDVKADNVLLSSDGSHAALCDFGHAVCLQPDGLGKSLLTGDYIPGTETHMAPEVVLGRSCDAKVDVWSSCCMMLHMLNGCHPWTQFFRGPLCLKIASEPPPVREIPPSCAP
notes: as for B3

binding result (IKKα-T7): no binding
B5: Myc-N1-578 (other, not shown: small tags and cut ends)
chain: MAVMEMACPGAPGSAVGQQKELPKPKEKTPPLGKKQSSVYKLEAVEKSPVFCGKWEILNDVITKGTAKEGSEAGPAAISIIAQAECENSQEFSPTFSERIFIAGSKQYSQSESLDQIPNNVAHATEGKMARVCWKGKRRSKARKKRKKKSSKSLAHAGVALAKPLPRTPEQESCTIPVQEDESPLGAPYVRNTPQFTKPLKEPGLGQLCFKQLGEGLRPALPRSELHKLISPLQCLNHVWKLHHPQDGGPLPLPTHPFPYSRLPHPFPFHPLQPWKPHPLESFLGKLACVDSQKPLPDPHLSKLACVDSPKPLPGPHLEPSCLSRGAHEKFSVEEYLVHALQGSVSSSQAHSLTSLAKTWAARGSRSREPSPKTEDNEGVLLTEKLKPVDYEYREEVHWATHQLRLGRGSFGEVHRMEDKQTGFQCAVKKVRLEVFRAEELMACAGLTSPRIVPLYGAVREGPWVNIFMELLEGGSLGQLVKEQGCLPEDRALYYLGQALEGLEYLHSRRILHGDVKADNVLLSSDGSHAALCDFGHAVCLQPDGLGKSLLTGDYIPGTETHMAPEVVLGRSCDAKVD
notes: as for B3

— US6645728 (University of California, dated 2003)
